The record followed here is publication doi:10.1101/2023.05.17.541065.

One data set deals with T1, EIL1-GST (tomato, UniProt Q94FV4 1-610).
T1 sequence: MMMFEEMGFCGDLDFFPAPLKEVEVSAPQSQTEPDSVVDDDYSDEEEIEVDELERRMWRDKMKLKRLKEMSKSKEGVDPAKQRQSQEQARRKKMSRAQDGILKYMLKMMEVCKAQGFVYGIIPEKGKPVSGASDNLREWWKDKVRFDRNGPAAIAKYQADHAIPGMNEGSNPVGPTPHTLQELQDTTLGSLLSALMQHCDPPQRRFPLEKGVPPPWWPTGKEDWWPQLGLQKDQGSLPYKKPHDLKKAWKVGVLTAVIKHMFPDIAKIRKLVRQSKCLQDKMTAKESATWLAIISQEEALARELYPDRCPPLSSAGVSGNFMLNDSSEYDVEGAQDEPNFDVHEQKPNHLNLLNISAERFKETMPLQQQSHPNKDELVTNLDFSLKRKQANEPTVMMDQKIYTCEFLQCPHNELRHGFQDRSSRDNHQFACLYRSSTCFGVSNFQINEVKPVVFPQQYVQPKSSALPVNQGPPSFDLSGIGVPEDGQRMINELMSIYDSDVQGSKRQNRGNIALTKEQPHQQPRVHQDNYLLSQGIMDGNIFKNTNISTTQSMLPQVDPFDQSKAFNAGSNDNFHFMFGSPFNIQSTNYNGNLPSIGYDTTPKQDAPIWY
Put plainly: EMSA.

Another data set has as its target MYC2-TF (tomato, UniProt A0A3Q7HRZ6 1-689). The data set can be described thus: EMSA. A general note: Mobility shift assays separate free from complexed probe on a gel.

MYC2-TF, sequence (A0A3Q7HRZ6 whole entry): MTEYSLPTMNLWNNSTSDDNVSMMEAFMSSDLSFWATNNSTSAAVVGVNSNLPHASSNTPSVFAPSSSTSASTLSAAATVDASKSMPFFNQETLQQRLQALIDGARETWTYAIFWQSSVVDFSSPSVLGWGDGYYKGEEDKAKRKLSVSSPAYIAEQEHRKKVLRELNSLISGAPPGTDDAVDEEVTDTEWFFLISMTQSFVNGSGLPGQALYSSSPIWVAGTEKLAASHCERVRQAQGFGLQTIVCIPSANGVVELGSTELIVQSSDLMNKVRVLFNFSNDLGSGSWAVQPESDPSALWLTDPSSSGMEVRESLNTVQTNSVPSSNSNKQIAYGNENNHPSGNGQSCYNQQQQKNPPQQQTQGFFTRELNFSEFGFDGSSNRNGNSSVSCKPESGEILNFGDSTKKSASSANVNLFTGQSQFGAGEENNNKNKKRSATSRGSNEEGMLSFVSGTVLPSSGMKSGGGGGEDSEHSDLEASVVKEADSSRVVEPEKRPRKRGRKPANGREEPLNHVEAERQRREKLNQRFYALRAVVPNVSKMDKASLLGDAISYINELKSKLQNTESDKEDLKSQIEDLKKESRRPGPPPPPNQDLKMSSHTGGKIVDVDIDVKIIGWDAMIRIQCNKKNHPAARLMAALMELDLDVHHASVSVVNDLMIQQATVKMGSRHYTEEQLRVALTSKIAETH

B1: CYP94C1 promoter EBS probe (dsDNA)
DNA 1: TGTGTCTTTTTTCAATAAAGGTGATGTATCGGGACAAGATGCATCGGACGCTG
DNA 2: CAGCGTCCGATGCATCTTGTCCCGATACATCACCTTTATTGAAAAAAGACACA
As to B1, the binding result with EIL1-GST was “binds”.

B2: CYP94B promoter G-box probe (dsDNA)
DNA 1: TTTACGCGCACAAGAAACACGTGATTTAAATGCATAATTA
DNA 2: TAATTATGCATTTAAATCACGTGTTTCTTGTGCGCGTAAA
As to B2, the binding result with MYC2-TF was “binds”.
